Source: US20250281586A1 (ELANCO US, published 2025)

Assays:
[1] = molecular target: T1, recombinant mouse IL-1RI Fc chimera (R&D 771-MR-100) (mouse, UniProt P13504 20-338); assay: ELISA on coated mouse IL-1RI Fc chimera
T1 construct: Coated on ELISA plates at 1 µg/ml; used in place of canine and feline IL-1RI, which were not commercially available; also called IL-1RI receptor; Fc part of the bought chimera not given; not described
T1 sequence (looked up): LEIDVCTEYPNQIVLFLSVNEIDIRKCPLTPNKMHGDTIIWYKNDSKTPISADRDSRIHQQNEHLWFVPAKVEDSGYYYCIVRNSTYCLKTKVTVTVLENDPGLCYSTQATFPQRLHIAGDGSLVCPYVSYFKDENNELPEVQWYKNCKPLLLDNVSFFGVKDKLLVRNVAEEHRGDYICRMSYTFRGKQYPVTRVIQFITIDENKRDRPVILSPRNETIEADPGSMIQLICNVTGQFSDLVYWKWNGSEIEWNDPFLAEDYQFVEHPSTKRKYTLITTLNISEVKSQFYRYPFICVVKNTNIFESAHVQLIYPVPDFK

[2] = molecular target: T1, recombinant mouse IL-1RI Fc chimera …; assay: ELISA on coated mouse IL-1RI Fc chimera, detection with biotinylated anti-cIL-1β antibody
[3] = molecular target: T1, recombinant mouse IL-1RI Fc chimera …; assay: ELISA on coated mouse IL-1RI Fc chimera, detection with biotinylated anti-fIL-1β antibody

B1: cIL1b-D145K-CMV-Ntt830-E4 VLPs (other)
chain 1: MGQYIKANSKFIGITERRRRPRRGSRSAPSSADANFRVLSQQLSRLNKTLAAGRPTINHPTFVGSERCKPGYTFTSITLKPPKIDRGSGGGSEEEEGGGSGSYYGKRLLLPDSVTEYDKKLVSRIQIRVNPLPKFDSTVWVTVRKVPASSDLSVAAISAMFADGASPVLVYQYAASGVQANNKLLYDLSAMRADIGDMRKYAVLVYSKDDALETDELVLHVDVEHQRIPTSGVLPV
chain 2: MGSAAMQSVDCKLQDISHKYLVLSNSYELRALHLNGENVNKQVVFHMSFVHGDESNNKIPVVLGIKQKNLYLSCVMKDGKPTLQLEKVDPKVYPKRKMEKRFVFNKIEIKNTVEFESSQYPNWYISTSQVEGMPVFLGNTRGGQDITKFTMEFSSTSHHHHHHGGCG
modifications: engineered free cysteine linked to the maleimide of SMPH bound to the VLP; lysine on the VLP surface derivatized with SMPH
notes: also called cIL1b-D145K-CMV-Ntt830-E4 vaccine; cIL-1b-D145K-CMV vaccine
[1]
  binding result: binds

B2: fIL-1b-D145K-CMV-Ntt830-E4 VLPs (other)
chain 1: B1 chain 1
chain 2: GSAAIQSQDYTFRDISQKSLVLSGSYELRALHLNGQNMNQQVVFRMSFVHGEENSKKIPVVLCIKKNNLYLSCVMKDGKPTLQLEMLDPKVYPKKKMEKRFVFNKTEIKGNVEFESSQFPNWYISTSQAEEMPVFLGNTKGGQDITKFIMESASTSHHHHHHGGCG
modifications: engineered free cysteine linked to the maleimide of SMPH bound to the VLP; lysine on the VLP surface derivatized with SMPH
notes: also called fIL-1b-D145K-CMV-Ntt830-E4 vaccine; fIL1b145K-CMV-Ntt830-E4 vaccine
[1]
  binding result: binds

B3: canine IL-1β-D145K mutein antigen (ligand)
chain: B1 chain 2
notes: expressed in E. coli and purified by IMAC and gel filtration; also called cIL-1β-D145K antigen; cIL1b-D145K-C6Hcg
[2]
  binding result: binds

B4: canine IL-1β wild type of SEQ ID NO:29 (ligand)
chain: AAMQSVDCKLQDISHKYLVLSNSYELRALHLNGENVNKQVVFHMSFVHGDESNNKIPVVLGIKQKNLYLSCVMKDGKPTLQLEKVDPKVYPKRKMEKRFVFNKIEIKNTVEFESSQYPNWYISTSQVEGMPVFLGNTRGGQDITDFTMEFSS
notes: also called purified canine IL-1β wild type; wild type canine IL-1β
[2]
  binding result: binds

B5: commercially available recombinant canine IL-1β protein (R&D 3747-CL-025) (ligand, UniProt Q28292 115-266, looked up)
chain: B4 chain
notes: Bought protein; also called recombinant canine IL-1β purchased from R&D system; commercially available canine IL-1β standard
[2]
  binding result: binds

B6: purified feline IL-1β wild type of SEQ ID NO:38 (ligand)
chain: AAIQSQDYTFRDISQKSLVLSGSYELRALHLNGQNMNQQVVFRMSFVHGEENSKKIPVVLCIKKNNLYLSCVMKDGKPTLQLEMLDPKVYPKKKMEKRFVFNKTEIKGNVEFESSQFPNWYISTSQAEEMPVFLGNTKGGQDITDFIMESAS
notes: also called purified wild type feline IL-1β; recombinant feline wild type IL-1β
[3]
  binding result: binds

B7: feline IL-1β-D145K mutein antigen (ligand)
chain: B2 chain 2
notes: also called fIL-1β-D145K antigen
[3]
  binding result: binds
